Measurements published in article PMC11006224.

Biological target: human FcRn-b2m protein construct containing an AviTag (human) (UniProt P55899)
Assay: BLI

UniProt P55899, sequence (P55899 24-365, chain 1 of 2): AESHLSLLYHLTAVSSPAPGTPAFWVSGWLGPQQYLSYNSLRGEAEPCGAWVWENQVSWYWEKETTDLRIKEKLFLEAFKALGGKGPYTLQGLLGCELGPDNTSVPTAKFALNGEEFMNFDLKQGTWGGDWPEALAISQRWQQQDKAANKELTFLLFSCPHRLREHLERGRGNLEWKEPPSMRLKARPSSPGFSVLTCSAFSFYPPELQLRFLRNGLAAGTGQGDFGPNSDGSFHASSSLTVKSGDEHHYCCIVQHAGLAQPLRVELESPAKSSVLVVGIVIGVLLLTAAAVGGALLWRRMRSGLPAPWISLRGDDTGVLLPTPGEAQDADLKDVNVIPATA
UniProt P55899, sequence (P61769 21-119, chain 2 of 2, further chain): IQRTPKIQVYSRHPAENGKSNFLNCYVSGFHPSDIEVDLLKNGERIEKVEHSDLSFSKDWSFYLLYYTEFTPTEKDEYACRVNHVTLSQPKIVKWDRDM

## rituximab IgG1, full length (from UniProt P01857 1-399) (antibody)
  Kd: 14.3 nM
